Patent US11180767B2, “Protease deficient filamentous fungal cells and methods of use thereof” (GLYKOS FINLAND OY, priority 2012, dated 2021)

Tests used:
[1] = tested on: MAB01 heavy chain; assay: Antibody degradation by Pichia-expressed T. reesei proteases (MAB01); format: biochemical
Experimental: The T. reesei aspartic proteases pep3 (tre121133) and pep7 (tre58669) expressed from Pichia were also tested in vitro, by measuring the degradation of the MAB01 antibody and IGF-1. Degradation of MAB01 and IGF-1 by pep3 and pep7 was analyzed by immunoblotting. The aspartic proteases were produced in Pichia supernatants. Pichia supernatants were diluted to 1× concentration, and then mixed with 50 mM sodium citrate buffer, pH 5.5. MAB01 was added to each reaction so that the final concentration would be 0.05 μg IGF-1 was added to each reaction so that the final concentration would be 0.30 μg μl. Ten microliters of each reaction mixture was then sampled and added to 3 μl of Laemmli sample buffer with β-mercaptoethanol. The samples were heated at 95° C. for 5 minutes before being loaded into a 4-15% PAGE gel (BioRad mini-protean TGX precast gel) along with an all blue precision plus prestained molecular weight marker (BioRad). The PAGE gel was run for 30 minutes at 200V. The proteins in the gel were then electrotransferred into a nitrocellulose filter at 100V for 1 hour. The protein containing nitrocellulose filter was then blocked with 5% milk powder in Tris buffered saline with 0.1% tween (TBST) for 1 hour shaking at room temperature. The blocked membranes were then probed with antibody. The MAB01 containing membranes were probed with an anti-IgG heavy chain antibody AP conjugate (Sigma #A3188) diluted 1:30,000 in TBST. The IGF-1 samples were analyzed using a primary anti-IGF-1 antibody (1:2000 in TBST) and anti-IgG AP conjugated secondary antibody (1:5000 in TBST). All antibody incubations were done for 1 hour at room temperature on a shaker. The membranes were then washed with 3 changes of TBST for 20 minutes each on the shaker. The membranes were developed with the BCIP/NBT alkaline phosphatase substrate (Promega #S3771) for up to 5 minutes.
Pichia supernatants containing Trichoderma reesei gap2 were also studied in vitro. The gap2 containing supernatant and MAB01 antibody were diluted into sodium citrate buffers adjusted to pH 4.0, 4.5, 5.0, and 5.5, and incubated for 20 hours at 37° C. Samples were taken at 0 minutes and after 20 hours. MAB01 heavy chain production was analyzed by immunoblotting using an anti-IgG heavy chain (Sigma #A3188) antibody AP conjugate.
(§1) The Trichoderma reesei subtilisin proteases slp5, slp6, and slp7 were overproduced in Pichia supernatants for investigation of their activity against the antibody rituximab and MAB01 heavy chains (FIG. 25). The rituximan mock supernatant was compared to supernatants containing slp5 and slp6 (FIG. 25 A). The MAB01 mock supernatant was compared to supernatants containing slp7 (FIG. 25B). Rituximab and MAB01 were added to the protease-containing Pichia supernatants and incubated overnight at 37° C. Samples were taken and analyzed by immunoblotting with an anti-heavy chain AP conjugated antibody.

[2] = tested on: rituximab heavy chain; assay: Antibody degradation by Pichia-expressed T. reesei proteases (rituximab); format: biochemical; details: overnight 37°C
Experimental: as §1

[3] = pH 5.5, 37°C, overnight/20 hours

B1: pep3: T. reesei aspartic protease tre121133 expressed from Pichia (protein, listed as Trichoderma reesei)
chain: MEAILQAQAKFRLDRGLQKITAVRNKNYKRHGPKSYVYLLNRFGFEPTKPGPYFQQHRIHQRGLAHPDFKAAVGGRVTRQKVLAKKVKEDGTVDAGGSKTGEVDAEDQQNDSEYLCEVTIGTPGQKLMLDFDTGSSDLWVFSTELSKHLQENHAIFDPKKSSTFKPLKDQTWQISYGDGSSASGTCGSDTVTLGGLSIKNQTIELASKLAPQFAQGTGDGLLGLAWPQINTVQTDGRPTPANTPVANMIQQDDIPSDAQLFTAAFYSERDENAESFYTFGYIDQDLVSASGQEIAWTDVDNSQGFWMFPSTKTTINGKDISQEGNTAIADTGTTLALVSDEVCEALYKAIPGAKYDDNQQGYVFPINTDASSLPELKVSVGNTQFVIQPEDLAFAPADDSNWYGGVQSRGSNPFDILGDVFLKSVYAIFDQGNQRFGAVPKIQAKQNLQPPQ
What does the source list for B1?
MAB01 degrading activity ([1]; pH 4.5, 37°C, overnight): higher; MAB01 degrading activity [1, 3]: low MAB01 degrading activity

B2: pep7: T. reesei aspartic protease tre58669 expressed from Pichia (protein, listed as Trichoderma reesei)
chain: MTLPVPLREHDLPFLKEKRKLPADDIPSGTYTLPIIHARRPKLASRAIEVQVENRSDVSYYAQLNIGTPPQTVYAQIDTGSFELWVNPNCSNVQSADQRFCRAIGFYDPSSSSTADVTSQSARLRYGIGSADVTYVHDTISLPGSGSGSKAMKAVQFGVADTSVDEFSGILGLGAGNGINTEYPNFVDELAAQGVTATKAFSLALGSKAEEEGVIIFGGVDTAKFHGELAHLPIVPADDSPDGVARYWVKMKSISLTPPPPSSSGSTDDNNNKPVAFPQTSMTVFLDSGSTLTLLPPALVRQIASALGSTQTDESGFFVVDCALASQDGTIDFEFDGVTIRVPYAEMIRQVSTLPPHCYLGMMGSTQFALLGDTFLRSAYAVFDLTSNVVHLAPYANCGTNVKSITSTSSLSNLVGTCNDPSKPSSSPSPSQTPSASPSSTATQKA
Which MAB01 degrading activity ([1]; pH 4.5, 37°C, overnight) does the source give for B2 here?
The MAB01 degrading activity was “minimal antibody degrading activity”.

B3: slp6: T. reesei subtilisin protease overproduced in Pichia supernatant (protein, listed as Trichoderma reesei)
chain: MASLRRLALYLGALLPAVLAAPAVNYKLPEAVPNKFIVTLKDGASVDTDSHLTWVKDLHRRSLGKRSTAGVEKTYNIDSWNAYAGEFDEETVKQIKANPDVASVEPDYIMWLSDIVEDKRALTTQTGAPWGLGTVSHRTPGSTSYIYDTSAGSGTFAYVVDSGINIAHQQFGGRASLGYNAAGGDHVDTLGHGTHVSGTIGGSTYGVAKQASLISVKVFQGNSASTSVILDGYNWAVNDIVSRNRASKSAINMSLGGPASSTWATAINAAFNKGVLTIVAAGNGDALGNPQPVSSTSPANVPNAITVAALDINWRTASFTNYGAGVDVFAPGVNILSSWIGSNTATNTISGTSMATPHVVGLALYLQALEGLSTPTAVTNRIKALATTGRVTGSLNGSPNTLIFNGNSA
What does the source list for B3?
degradation of MAB01 heavy chain vs mock supernatant ([1]; Pichia supernatant, overnight 37°C): light degradation; degradation of rituximab heavy chain vs mock supernatant [2]: heavy degradation activity

B4: gap2: T. reesei glutamic protease tre106661 in Pichia supernatant (protein, listed as Trichoderma reesei)
chain: MDAIRARSAARRSNRFQAGSSKNVNGTADVESTNWAGAAITTSGVTEVSGTFTVPRPSVPAGGSSREEYCGAAWVGIDGYSDADLIQTGVLWCVEDGEYLYEAWYEYLPAALVEYSGISVTAGSVVTVTATKTGTNSGVTTLTSGGKTVSHTFSRQNSPLPGTSAEWIVEDFTSGSSLVPFADFGSVTFTGATAVVNGATVTAGGDSPVIIDLEDSRGDILTSTTVSGSTVTVEYE
Which results are given for B4?
proteolytic activity against heavy chain MAB01 ([1]; pH 4.0, 37°C, 20 hours): maximal proteolytic activity; MAB01 degrading activity [1, 3]: low
